From patent US6759384
Non-standard residues stand in square brackets, D forms with d. *: point of attachment. 2Nal = N[C@@H](Cc1ccc2ccccc2c1)C(=O)O; Chg = N[C@H](C(=O)O)C1CCCCC1; Tos = Cc1ccc(S(=O)(=O)*)cc1

target: human factor Xa (Enzyme Research Laboratories, Inc.) (human) (UniProt P00742); assay: chromogenic FXa inhibition
Sequence (P00742 41-179 limits assumed, chain 1 of 2): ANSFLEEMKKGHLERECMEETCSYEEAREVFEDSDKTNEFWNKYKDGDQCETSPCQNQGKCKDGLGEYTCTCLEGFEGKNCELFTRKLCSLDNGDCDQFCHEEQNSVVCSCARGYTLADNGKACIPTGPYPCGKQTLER
Sequence (P00742 235-488 limits assumed, chain 2 of 2): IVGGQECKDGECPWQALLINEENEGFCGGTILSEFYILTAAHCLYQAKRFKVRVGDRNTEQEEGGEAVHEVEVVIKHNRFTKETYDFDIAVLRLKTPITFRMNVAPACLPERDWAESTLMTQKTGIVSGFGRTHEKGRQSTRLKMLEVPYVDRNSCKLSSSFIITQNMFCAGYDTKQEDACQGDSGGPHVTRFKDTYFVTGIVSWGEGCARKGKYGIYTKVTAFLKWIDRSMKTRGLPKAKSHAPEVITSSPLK

Substance | Ki
Tfa-(iBu)Y-I-R-NH2 (peptide) | < 100 µM
Tfa-(iBu)Y-I-R-OH (peptide) | < 100 µM
Tfa-Y-Chg-R-NH2 (peptide) | < 100 µM
Tos-Tyr-Ile-Arg-NH2 | < 100 µM
Y-I-R-NH2 (peptide) | < 100 µM
pAph-Chg-Arg-Leu-Pro-NH2 (peptide) | < 100 µM
pal-I-R-C(SBut)-Hyp-NH2 (peptide) | < 100 µM
y-Chg-R-L-NH2 (peptide) | < 100 µM
y-Chg-R-NH2 (peptide) | < 100 µM
y-I-R-NH2 (peptide) | < 100 µM
y-Tle-R-Nle-P-NH2 (peptide) | < 100 µM

The remaining lines, values ahead:

Ki | Substance
< 100 µM | Ac-Y-Chg-R-NH2 (peptide)
< 100 µM | Ac-[2Nal][Chg]RLP-NH2
< 100 µM | Pgl(OH)-I-R-L-NH2 (peptide)
< 100 µM | Ph-C(NOCH2Ph)-CO-I-R-NH2 (peptide)
< 100 µM | Tfa-(iBu)F(pNH2)-Chg-R-NH2 (peptide)
< 100 µM | Tfa-(iBu)Nal(2)-Chg-R-L-P-NH2 (peptide)
< 100 µM | Tfa-(iBu)Y-Chg-R-NH2 (peptide)
< 100 µM | Tfa-(iBu)Y-I-PalMe(3)-NH2 (peptide)

target: human factor Xa (Enzyme Research Laboratories, Inc.) (human) (UniProt P00742); assay: chromogenic enzyme inhibition, IC50 corrected for substrate

Substance | Ki
TENSTOP (N-alpha-tosyl-Gly-p-amidinophenylalanine methyl ester) | 2 µM

target: human thrombin (Enzyme Research Laboratories, Inc.) (human) (UniProt P00734); assay: as above

Substance | Ki
TENSTOP (N-alpha-tosyl-Gly-p-amidinophenylalanine methyl ester) | 2 µM

target: human factor Xa (Enzyme Research Laboratories, Inc.) (human) (UniProt P00742); assay: cell-based or functional assay

Substance | EC50 (concentration giving 50% inhibition of coagulation), in vitro dilute prothrombin time assay, pooled human plasma
Ac-Y-Chg-R-NH2 (peptide) | 0.0025 µM
Ac-[2Nal][Chg]RLP-NH2 | 0.14 µM
